Experimental data as given in US20260102474A1 (DEUTSCHES KREBSFORSCHUNGSZENTRUM STIFTUNG DES FFENTLICHEN …, published 2026).

Tests used:
Assay in all cases: ELISA on coated his-tagged Fc receptor, anti-human-Fc HRP detection
[1] = molecular target: his-tagged FcγRI protein (R&D Systems) (UniProt P12314 16-288)
[2] = molecular target: T1, his-tagged FcγRIIa protein (R&D Systems) (UniProt P12318 36-218)
T1 sequence (looked up): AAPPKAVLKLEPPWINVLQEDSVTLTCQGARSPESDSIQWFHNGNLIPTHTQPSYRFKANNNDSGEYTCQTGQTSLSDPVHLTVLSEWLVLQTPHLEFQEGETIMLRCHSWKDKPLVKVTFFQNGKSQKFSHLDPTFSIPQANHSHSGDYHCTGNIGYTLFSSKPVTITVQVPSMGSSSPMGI

[3] = molecular target: T2, his-tagged FcγRIIb protein (R&D Systems) (UniProt P31994 46-217)
T2 sequence (looked up): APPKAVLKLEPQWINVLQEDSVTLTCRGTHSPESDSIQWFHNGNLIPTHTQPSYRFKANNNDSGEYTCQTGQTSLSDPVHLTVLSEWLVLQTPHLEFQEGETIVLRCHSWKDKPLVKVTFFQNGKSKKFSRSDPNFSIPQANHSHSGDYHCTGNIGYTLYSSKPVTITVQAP

[4] = molecular target: his-tagged FcRIIIa protein (R&D Systems) (UniProt P08637 17-208)

Measured: binding result

Chain of his-tagged FcRIIIa protein (R&D Systems) (P08637 17-208 limits assumed): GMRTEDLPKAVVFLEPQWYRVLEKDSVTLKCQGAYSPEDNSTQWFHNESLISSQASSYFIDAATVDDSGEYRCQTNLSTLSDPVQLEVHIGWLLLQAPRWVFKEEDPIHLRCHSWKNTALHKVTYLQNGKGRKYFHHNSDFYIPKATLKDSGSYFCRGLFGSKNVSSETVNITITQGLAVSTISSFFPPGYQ
Chain of his-tagged FcγRI protein (R&D Systems) (P12314 16-288 limits assumed): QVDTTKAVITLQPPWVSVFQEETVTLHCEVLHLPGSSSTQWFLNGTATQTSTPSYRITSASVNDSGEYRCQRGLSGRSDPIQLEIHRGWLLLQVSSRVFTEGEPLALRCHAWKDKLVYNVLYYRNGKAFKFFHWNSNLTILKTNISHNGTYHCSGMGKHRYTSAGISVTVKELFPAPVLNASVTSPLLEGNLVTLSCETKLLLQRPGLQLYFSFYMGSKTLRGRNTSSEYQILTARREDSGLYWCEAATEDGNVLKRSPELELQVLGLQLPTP

B1: ACE2-M1-FcKO (Fc fusion)
chain: STIEEQAKYFLDKFNHEAEDLFYQSSLASWNYNTNITEENVQNMNNAGDKWSAFLKEQSTYAQMYPLQEIQNLTVKLQLQALQQNGSSVLSEDKSKRLNTILNTMSTIYSTGKVCNPDNPQECLLLEPGLNEIMANSLDYNERLWAWESWRSEVGKQLRPLYEEYVVLKNEMARANHYEDYGDYWRGDYEVNGVDGYDYSRGQLIEDVEHTFEEIKPLYEHLHAYVRAKLMNAYPSYISPIGCLPAHLLGDMWGRFWTNLYSLTVPFGQKPNIDVTDAMVDQAWDAQRIFKEAEKFFVSVGLPNMTQGFWEYSMLTDPGNVQKAVCHPTAWDLGKGDFRILMCTKVTMDDFLTAHREMGRIQYDMAYAAQPFLLRNGANEGFHEAVGEIMSLSAATPKHLKSIGLLSPDFQEDNETEINFLLKQALTIVGTLPFTYMLEKWRWMVFKGEIPKDQWMKKWWEMKREIVGVVEPVPHDETYCDPASLFHVSNDYSFIRYYTRTLYQFQFQEALCQAAKHEGPLHKCDISNSTEAGQKLFNMLRLGKSEPWTLALENVVGAKNMNVRPLLNYFEPLFTWLKDQNKNSFVGWSTDWSPYADQSIKVRISLKSALGDKAYEWNDNEMYLFRSSVAYAMRQYFLKVKNQMILFGEEDVRVANLKPRISFNFFVTAPKNVSDIIPRTEVEKAIRMSRSRINDAFRLNDNSLEFLGIQPTLGPPNQPPVSSGGGGSGGGGSGGGGSEPKSSDKTHTCPPCPAPPVAGPSVFLFPPKPKDTLMISRTPEVTCVVVGVSHEDPEVKFNWYVDGVEVHNAKTKPREEQYNSTYRVVSVLTVLHQDWLNGKEYKCKVSNKQLPSPIEKTISKAKGQPGQPREPQVYTLPPSRDELTKNQVSLTCLVKGFYPSDIAVEWESNGQPENNYKTTPPVLDSDGSFFLYSKLTVDKSRWQQGNVFSCSVMHEALHNHYTQKSLSLSPGK
notes: also called M1 version
no binding: all assays above
